# Values quoted from earlier work in patent publication US20170136096A1, “Insulin-Containing Prolonged-Action Preparation” (OBSCHESTVO S OGRANCHENNOJ OTVETCTVENNOSTU "BIOSABTEK", priority 2014, published 2017).
# Details: administered under the skin, injection solution pH 4
substance,measurement,value
glargine,duration of flat time-concentration profile,≤ 24 h
